{
  "source": "patent US6676941B2",
  "about": "(Board of Regents, The University of Texas System, priority 1999, dated 2004)",
  "molecules": {"B1": {"name": "endostatin (protein, UniProt P39060 1572-1754, looked up)", "Endostatin": "HSHRDFQPVLHLVALNSPLSGGMRGIRGADFQCFQQARAVGLAGTFRAFLSSRLQDLYSIVRRADRAAVPIVNLKDELLFPSWEALFSGSEGPLKPGARIFSFDGKDVLRHPTWPQKSVWHGSDPNGRRLTESYCETWRTEAPSATGQASSLLGGRLLGQSAASCHHAYIVLCIENSFMTASK", "modifications": "Endostatin"}},
  "test_system": "Bend3 mouse endothelial cells; ABAE; HUVEC",
  "experiment": "Direct binding of biotinylated 6-His endostatin to endothelial cells",
  "format": "cell-based, bovine, human",
  "conditions": "streptavidin-peroxidase detection",
  "excerpt": "Binding was detected using streptavidin-peroxidase in conjunction with O-phenylenediamine (OPD) and the absorbance read at 490 nm.",
  "data": [
    {"molecule": "B1", "values": [
      {"measurement": "Binding to endothelial cells in vitro", "result": "bound in a saturable fashion"}
    ]}
  ]
}
